B1: library; numbered along this chain (parent)
chain: MATDAALRRLLRLHRTEIAVAVDSAFPLLHALADHDVVPEDKFQETLHLKEKEGCPQAFHALLSWLLTQDSTAILDFWRVLFKDYNLERYGRLQPILDSFPKDVDLSQPRKGRKPPAVPKALVPPPRLPTKRKASEEARAAAPAALTPRGTASPGSQLKAKPPKKPESSAEQQRLPLGNGIQTMSASVQRAVAMSSGDVPGARGAVEGILIQQVFESGGSKKCIQVGGEFYTPSKFEDSGSGKNKARSSSGPKPLVRAKGAQGAAPGGGEARLGQQGSVPAPLALPSDPQLHQKNEDECAVCRDGGELICCDGCPRAFHLACLSPPLREIPSGTWRCSSCLQATVQEVQPRAEEPRPQEPPVETPLPPGLRSAGEEVRGPPGEPLAGMDTTLVYKHLPAPPSAAPLPGLDSSALHPLLCVGPEGQQNLAPGARCGVCGDGTDVLRCTHCAAAFHWRCHFPAGTSRPGTGLRCRSCSGDVTPAPVEGVLAPSPARLAPGPAKDDTASHEPALHRDDLESLLSEHTFDGILQWAIQSMARPAAPFPS

Variants of: B1
Experiment: AIRE transcriptional activation functional score (insulin promoter-GFP; nonsense median 0, synonymous median 1) (normalised score); higher = higher AIRE activity (more reporter activation)
Details: with insulin promoter-GFP reporter in HEK293
Procedure, shortened: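 Three regions of AIRE were covered by codon-optimized NNN-codon libraries, which Bxb1 recombinase integrated into Flp-In T-REx HEK293 landing-pad cells that carry an insulin core promoter-GFP reporter. Integrants (mCherry+, BFP−) were sorted at day 7 and expanded 7 days, and then the top 10% GFP population and the unselected integrant population were tile-sequenced. The functional score is the enrichment of each variant in select versus non-select cells, with wild type subtracted. Variants required 10 counts per million in non-select, and values were rescaled to a nonsense median of 0 and a synonymous median of 1, then averaged over biological replicates.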

AIRE transcriptional activation functional score, by site and new letter:
D514: G 0.3; M 0.515; C 0.246; Q -0.128; R 0.191; A 0.214; Y 0.351; T 0.26; P -0.178; V 0.335; K -0.0487; I -0.186; F 0.299; H 0.52; N 0.242; W -0.252; S 0.341; L 0.0834; E 0.931
A510: C 1.24; Y 0.861; R 0.323; P 1.35; L 1.04; I -0.237; K 0.165; G 0.977; Q 0.851; F 0.578; T 0.933; W 0.663; M 1.37; H 0.605; E 1.33; V 1.09; S 0.921
E517: Y 0.524; H 0.164; L 0.0571; A -0.0659; S -0.144; Q 0.0484; G 0.693; V 0.207; D 1.25; R 0.985; K -0.0484; I 0.0464
D515: L -0.215; G 0.421; R -0.0862; I 0.101; E 1.18; V 0.106; Y 0.405; N 0.626; A -0.0405; M -0.0216; S 0.474; T 0.0981; K -0.501; W -0.15; C 0.503; H 0.453; Q 0.723; P 0.67; F 0.156
P509: W 0.591; H 0.506; V 1.14; G 1.11; S 1.16; N 0.827; F 1.17; L 0.827; K 0.522; Q 1.12; R 0.805; E 1.16; C 0.247; M 1.65; A 0.736; I 1.21; Y 1.11; T 0.871
S518: F 1.2; A 0.775; H 0.981; G 0.666; C 0.672
L516: V 0.832; T 0.362; I 0.97; E -0.232; Q 0.292; A 0.556; N 0.207; H 0.715; G 0.562; P 0.365; R 0.262; F 1.48; Y 1.01; K 0.259; D 0.758; C 0.678; S 0.564; W 0.496
R513: K 0.902; L 0.882; V 0.873; Y 1.28; T 1.17; H 0.0273; P 0.55; N 0.0982; M 1.01; D 0.928; C 0.777; F 1.18; I 1.44; W 0.733; E -0.344; S 0.587; G -0.188
E508: Y 0.92; T 0.822; W 0.888; V 0.577; S 0.0376; Q 1.03; P 0.813; R 0.154
L511: S 0.682; Y 1.19; K -0.311; P 0.736; T 0.121; F 0.864; I 0.739; C 0.201; V 0.838; G 0.805; H 0.98; R 0.813; Q 0.142; A 0.757; M 0.699; W 1.02
H512: P 1.09; G 0.716; K 0.572; F 1.21; T 0.649; Y 0.777; L 0.941; N 1.02; C -0.3; I 1.1; S 0.923; D 0.939; V 1.35; A 0.977; M 0.439; R 0.445; Q 0.273; W 1.06
